Experimental findings from article doi:10.1101/2020.09.14.294884 (bioRxiv, 2020) are described below.

Usually Kd stands for the free concentration of one partner at which half of the binding sites on the other are occupied at equilibrium, for simple one-to-one binding. The koff is the rate constant with which the complex falls apart.

The assay has as its target T1, recombinant Psb28 (from pIVEXPsb28His) (T. elongatus, UniProt Q8DLJ8 2-116).
T1 sequence: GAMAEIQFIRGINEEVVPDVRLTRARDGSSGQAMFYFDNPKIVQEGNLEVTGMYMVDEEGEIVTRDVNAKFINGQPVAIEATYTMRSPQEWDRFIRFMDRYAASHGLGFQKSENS
Put plainly: NMR titration.

Where no end group is shown, it is not given here.

Take Ac-SGIDPELSPEQVEWGFYQKV [carboxy-terminal peptide from residues 480-499 of CP47]: the Kd came out at 53.92 ± 0.41 µM and the koff is 10.1 ± 0.16 s⁻¹.
